Measurements: article PMC7954794, “Protein context shapes the specificity of SH3 domain-mediated interactions in vivo” (Nature Communications, 2021)

B1: YNL243W_1 (protein, UniProt P33338 1-968, looked up)
Protein SLA2: MSRIDSDLQKALKKACSVEETAPKRKHVRACIVYTWDHQSSKAVFTTLKTLPLANDEVQLFKMLIVLHKIIQEGHPSALAEAIRDRDWIRSLGRVHSGGSSYSKLIREYVRYLVLKLDFHAHHRGFNNGTFEYEEYVSLVSVSDPDEGYETILDLMSLQDSLDEFSQIIFASIQSERRNTECKISALIPLIAESYGIYKFITSMLRAMHRQLNDAEGDAALQPLKERYELQHARLFEFYADCSSVKYLTTLVTIPKLPVDAPDVFLINDVDESKEIKFKKREPSVTPARTPARTPTPTPPVVAEPAISPRPVSQRTTSTPTGYLQTMPTGATTGMMIPTATGAANAIFPQATAQMQPDFWANQQAQFANEQNRLEQERVQQLQQQQAQQELFQQQLQKAQQDMMNMQLQQQNQHQNDLIALTNQYEKDQALLQQYDQRVQQLESEITTMDSTASKQLANKDEQLTALQDQLDVWERKYESLAKLYSQLRQEHLNLLPRFKKLQLKVNSAQESIQKKEQLEHKLKQKDLQMAELVKDRDRARLELERSINNAEADSAAATAAAETMTQDKMNPILDAILESGINTIQESVYNLDSPLSWSGPLTPPTFLLSLLESTSENATEFATSFNNLIVDGLAHGDQTEVIHCVSDFSTSMATLVTNSKAYAVTTLPQEQSDQILTLVKRCAREAQYFFEDLMSENLNQVGDEEKTDIVINANVDMQEKLQELSLAIEPLLNIQSVKSNKETNPHSELVATADKIVKSSEHLRVDVPKPLLSLALMIIDAVVALVKAAIQCQNEIATTTSIPLNQFYLKNSRWTEGLISAAKAVAGATNVLITTASKLITSEDNENTSPEQFIVASKEVAASTIQLVAASRVKTSIHSKAQDKLEHCSKDVTDACRSLGNHVMGMIEDDHSTSQQQQPLDFTSEHTLKTAEMEQQVEILKLEQSLSNARKRLGEIRRHAYYNQDDD
B2: YBR102C_1 (protein, UniProt P38261 1-753, looked up)
Exocyst complex component …: MVEFSLKKARNNWKHVKKSASSPAKQKTPPSPAKPKQKTKKNPYSDLKDPATSYTLPTINARERSRVATSMQRRLSIHNTNYAPPTLDYSMPLPDMPNMIVPNDNVDSSHNNSSFTTENESVSSKGPSNSLNLSTADLSLNDSSYNKVPARSAMRNTVNPSGSNDPFNNSTSLRKMLANPHFNAKDFVHDKLGNASAITIDKFTSNLTDLSIQVQEEVKLNINKSYNEIMTVNNDLNVAMLELKRVRANINDLNEVLDQCTKIAEKRLQLQDQIDQERQGNFNNVESHSNSPALLPPLKAGQNGNLMRRDRSSVLILEKFWDTELDQLFKNVEGAQKFINSTKGRHILMNSANWMELNTTTGKPLQMVQIFILNDLVLIADKSRDKQNDFIVSQCYPLKDVTVTQEEFSTKRLLFKFSNSNSSLYECRDADECSRLLDVIRKAKDDLCDIFHVEEENSKRIRESFRYLQSTQQTPGRENNRSPNKNKRRSMGGSITPGRNVTGAMDQYLLQNLTLSMHSRPRSRDMSSTAQRLKFLDEGVEEIDIELARLRFESAVETLLDIESQLEDLSERISDEELMLLNLISLKIEQRREAISSKLSQSILSSNEIVHLKSGTENMIKLGLPEQALDLFLQNRSNFIQDLILQIGSVDNPTNYLTQLAVIRFQTIKKTVEDFQDIFKELGAKISSILVDWCSDEVDNHFKLIDKQLLNDEMLSPGSIKSSRKQIDGLKAVGLDFVYKLDEFIKKNSDKIR
B3: YOR042W_1 (protein, UniProt Q08412 1-411, looked up)
Ubiquitin-binding protein CUE5: MEEKEGIKDSSLLEKSNVPESINEDISKTTDVDLNSDGKKDNDTSAKDGTPKVEEKVNKSSGIDEDEVVTPAEDAKEEEEEHPPLPARRKSEEEPSKENPILQELKDAFPNLEEKYIKAVIIASQGVLSPAFNALLFLSDPESGKDIELPTQPVRKNPEAPARRRQTQLEQDELLARQLDEQFNSSHSRRRNRDRATRSMHEQRRRRHNPNEREQHHEDSEEEDSWSQFVEKDLPELTDRAGRSLQDTANKVSNWISDAYRRNFASGNEQNDNQHGHQDQQEWEPEIVDLSQGGKNSRPQQPERRRFNSFGVQVGDDSLESHGITLHNEDGFEDDEDVPPQLPTRTKSGESTGKVVAETTYIDTPDTETKKKWQPLPPEPLDTTPTKVNAVSRNKKNPDEDEFLINSDDEM
B4: YER008C_1 (protein, UniProt P33332 1-1336, looked up)
Exocyst complex component SEC3: MRSSKSPFKRKSHSRETSHDENTSFFHKRTISGSSAHHSRNVSQGAVPSSAPPVSGGNYSHKRNVSRASNSSQTSNFLAEQYERDRKAIINCCFSRPDHKTGEPPNNYITHVRIIEDSKFPSSRPPPDSKLENKKKRLLILSAKPNNAKLIQIHKARENSDGSFQIGRTWQLTELVRVEKDLEISEGFILTMSKKYYWETNSAKERTVFIKSLITLYIQTFEGHVPELVNWDLSLFYLDERSYQRAVITNRPGSVSPIKSPTSNFTTNTTQSVGSVPFSAPTERTRRSETESVNPVSTPASVEYHAGMKSLNKAPYSSNSTLNEVNKRYELEQQQQQEEAELRRLEEQKRLQLQKENEMKRLEEERRIKQEERKRQMELEHQRQLEEEERKRQMELEAKKQMELKRQRQFEEEQRLKKERELLEIQRKQREQETAERLKKEEQEALAKKEEEEKSKRNKVDNESYTQEINGKVDNLLEDLNAVLAEETETTPTMQNGTYVPERSTARAHDQLKKPLNIAKVESLGGSDLNDSISLSDEIAGLNTSNLSGEDQDEKNDLSFEKGDEVRYSNNFEGEAPHVYHEVSIIQEEAPAVSQKLILPEENNESEALIESKEEIKTMENIDDEVLLEILTDINWSIEDDADSMIERIDLRLAETEYLFNQNLLSLQKIGPNIRPYEDKVNDECHRIIPTLSLFLMEMSNFSNDIENVESQDNGLQVESANKKLLWNTLDELLKTVSLDEISLNQLLECPIREKNLPWMENQLNLLLKAFQAIGSDGNEVEYNLREISGLKQRLQFYEKVTKIFLNRIVEEMQKKFSNIRGQDISHDQMIRILTTLLIFSPLILFCKEISQKSYQAIVENWNVSIQPVYMELWTKKISQLQGIDTNDEKMNELSLSQLLNEWDTFRKERKTNDINPVFKNSFSLLTECLQTMRQECIVYQNFVEVFFHISSKHNFEEYIKHFNDPDAPPILLDTVKVMQSDREAAVIETQLVSRIFQPIVTRLSSYFVELVKAEPTVAPALTFYLENEIKSLESSNHEFLLSAVTRMYTQIKQVWSDNVEEQVLHFERISNATTNGEILPGILDLPVGLKNSEDLFQFAKRSMDIKDTDEGYESIELMNSSFRKLSIAATRSITHKEVNSSINPNLSDTAALNNDYMETISLLVNSNWLTEMLSMLNFNKDGIFDTSLQNVKKVFDVEKESYASFLLRDTMPKLTAFVYGVSNIIENTNNVNMTNPSRWAAYSRQNLENILLAYTSHEIETLVKRLHTHMVNDFGYHQENAINNVLCDKLWSCIQGQTVSLYLKLYTVIDKHYRGTNIRFTKNDIISAFEEYKNA
B5: YCR088W_1 (protein, UniProt P15891 2-592, looked up)
Actin-binding protein: ALEPIDYTTHSREIDAEYLKIVRGSDPDTTWLIISPNAKKEYEPESTGSSFHDFLQLFDETKVQYGLARVSPPGSDVEKIIIIGWCPDSAPLKTRASFAANFAAVANNLFKGYHVQVTARDEDDLDENELLMKISNAAGARYSIQTSSKQQGKASTPPVKKSFTPSKSPAPVSKKEPVKTPSPAPAAKISSRVNDNNDDDDWNEPELKERDFDQAPLKPNQSSYKPIGKIDLQKVIAEEKAKEDPRLVQKPTAAGSKIDPSSDIANLKNESKLKRDSEFNSFLGTTKPPSMTESSLKNDDDKVIKGFRNEKSPAQLWAERKAKQNSGNAETKAEAPKPEVPEDEPEGEPDVKDLKSKFEGLAASEKEEEEMENKFAPPPKKSEPTIISPKPFSKPQEPVKAEEAEQPKTDYKKIGNPLPGMHIEADNEEEPEENDDDWDDDEDEAAQPPLPSRNVASGAPVQKEEPEQEEIAPSLPSRNSIPAPKQEEAPEQAPEEEIEEEAEEAAPQLPSRSSAAPPPPPRRATPEKKPKENPWATAEYDYDAAEDNELTFVENDKIINIEFVDDDWWLGELEKDGSKGLFPSNYVSLGN
B6: YCR030C_1 (protein, UniProt P25623 1-870, looked up)
Suppressor of yeast profilin …: MTEQRTKYADSILTTKSPYEATETIRIRLSQVKLLNKDFYLLFKELANLKRNYAQQLRKIIAENEDITKILNAQMIESNVLTPQEMSAFRFNSLGELRNVWDTVIEELKSDLKSSTEYYNTLDQQVVRELKESVENNTSWRESKDLHSKLSKNAASIEHYSKNNENSSHLEEARRQWDQQSPYLFELFETIDYNRLDTLKNCMLRFQTSFSDYLLNTTKECETVMTKFLAFEPQSEIDRFAKDASQYNFQLSSSSKEVVPNNASPASATGARPVSVSNGAANTEREKKSPQKDKRKSAFGNIGHRLASASSSLTHNDLMNNEFSDSTNNSSLKSKKSSHTLRSKVGSIFGRNKTKNKRQQQSSSNSHIQASITETPNNSSTRVSSTATSSIYQKQRRPTYSSSKSNNWTPGEASDTPPLPPHATPKNVDAPVTADTPPAQTFTPSEVPPSTPQQSSPPTAKEPDSSNLPKTVPISISQPPLQPQSKTKPLPVEPASPSISLPTATVDNQPSGQVDSRPLHIRAPALPPSRKQNFIHNRDSQLYDSLPNHGSGATPTSSSLSSIPQERPVSTLSSQITGELRELNPQATGSSTSLVGQSLFQHSSLDTSQFGLNASIAEVLNASFKDGMLQNSQLIGEIALNYLPNSVMNSPLPIGINLRINNGAKFEKVILNQAFIERVAPEEFKVNPSFIDSRTLGAIKYSIKEPIAPIVIHPVWRFESHQASVVLTVKMSPSLPDEISQIVIEDLVVFVNIDGANATSALSKPQGSFSKEKKRITWRFKEPVVLTRNGEGQRLIARFITDGLAHESAKGVITKFTISETDNVALPHSGAGSGITLTCQELDENNPFGGEWLDVNTKRTLTTGNYHGLA

System: PPIs identified as affected by the SH3 domain deletions
Assay: Liquid DHFR-PCA low-throughput validation of PPIs affected by SH3 deletion (Fig. S1D-E)
Type: cell-based, Saccharomyces cerevisiae
Conditions: label = prey, liquid DHFR-PCA, prey _1 = lost, _2 = gained in screen
Method in brief: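 Yeast diploids from DHFR-PCA mating grown 48 h in synthetic complete MSG medium pH 6.0 with NAT and HPH, normalized to 1 OD and diluted to 0.1 OD in liquid PCA selection medium. Growth followed by OD every 15 min for 72 h at 30 °C.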

Row | Molecule | Ratio (Deletedscore / WTscore) (bait BBC1) | Ratio (Deletedscore / WTscore) (bait BEM1-1) | Ratio (Deletedscore / WTscore) (bait BEM1-2) | Ratio (Deletedscore / WTscore) (bait BZZ1-1) | Ratio (Deletedscore / WTscore) (bait HOF1) | Ratio (Deletedscore / WTscore) (bait MYO3) | Ratio (Deletedscore / WTscore) (bait MYO5) | Ratio (Deletedscore / WTscore) (bait PIN3) | Ratio (Deletedscore / WTscore) (bait RVS167) | Ratio (Deletedscore / WTscore) (bait LSB3)
1 | B1 | 0.664 | 1.137 | 0.8469 | 0.856 | 0.8741 | 0.5927 | 0.7315 | 1.05 | – | –
2 | B2 | – | 0.5987 | 0.6932 | – | – | – | – | – | 0.8234 | –
3 | B3 | 0.4675 | – | – | – | – | – | – | 0.5809 | – | –
4 | B4 | – | 0.9745 | 0.478 | – | – | – | – | – | 0.6394 | 0.7503
5 | B5 | – | 0.8735 | – | – | – | – | – | – | – | –
6 | B6 | – | 1.033 | 0.5499 | – | – | 0.7978 | 0.5102 | – | 0.6932 | –
